B1: OR4K15 (parent)
chain: GUUAACGGUCAUAGGCCAUGGAAACUAGGAGCACCAUUUCGCUGCCAGUGAAGAAAUGAACAAAGAAAAUCUGGGCCAGGCAGGCAUCAAAAGAAAUAGUCUUGCGCUCAACCAGAAAGUCUGUAAUCAUUUUAAGGGUA

This series covers variants of B1. Description: self-cleavage, relative activity (ratio to wild type); higher = more cleavage; in vitro, sequencing; the parent is a self-cleaving ribozyme.
With C40U A78U, the self-cleavage worked out at 0.32.

With U37C U49G, the self-cleavage amounted to 0.44.

For U87C A92G, the self-cleavage amounted to 0.43.

As to A62C U97A, the self-cleavage came out at 1.86.

Regarding A95U C105U, the self-cleavage amounted to 0.45.

A23G U102A: the self-cleavage turned out to be 0.82.

For A24G U26C, the self-cleavage was found to be 0.81.

Take A47U A66G: the self-cleavage is 0.99.

On to G1A A18C, for which the self-cleavage stood at 1.98.

With G1U A5G, the self-cleavage was 0.45.

On to A82G U87C, for which the self-cleavage stood at 0.46.

As to U70C A134G, the self-cleavage turned out to be 0.72.

As to U57C A125G, the self-cleavage worked out at 0.29.

G31A G73U: the self-cleavage amounted to 0.3.

Consider A27G U100C, for which the self-cleavage worked out at 1.8.

Turning to U39C U127A, the self-cleavage is 2.26.

Turning to A27G A110C, the self-cleavage was 0.43.

As for U19C U130C, the self-cleavage is 0.31.

For the variant A111G G137A, the self-cleavage turned out to be 0.02.

Regarding A11G C81U, the self-cleavage stood at 0.75.

With A13G A86G, the self-cleavage came out at 0.89.

Take U87A A114C: the self-cleavage stood at 0.05.

A52U A89G: the self-cleavage came to 1.56.

Turning to U9A A78U, the self-cleavage is 0.15.

Take A30U A59U: the self-cleavage worked out at 1.6.

Take A68G A91U: the self-cleavage came out at 1.44.

As for G8A A68G, the self-cleavage amounted to 2.15.

With A82G A129G, the self-cleavage amounted to 0.47.

As to A60G C105U, the self-cleavage was 0.28.

In the case of G28U A118G, the self-cleavage stood at 0.84.

On to U122G A129G, for which the self-cleavage amounted to 1.33.

Take A36G A63C: the self-cleavage was 2.09.

For the variant A64U A117G, the self-cleavage was found to be 1.18.

C121A: the self-cleavage worked out at 2.65.

For the variant U26C G93U, the self-cleavage was determined as 0.86.

U57C U72A: the self-cleavage was 0.18.

Consider U19A A51U, for which the self-cleavage stood at 2.15.

With A59G A111C, the self-cleavage was 0.03.

For A62G A126C, the self-cleavage amounted to 0.62.

Turning to G137C, the self-cleavage was 1.82.

For the variant U19A A89G, the self-cleavage was determined as 0.78.

Regarding A78G A110G, the self-cleavage was determined as 0.11.

Turning to A51U G84A, the self-cleavage came out at 0.65.

Take C128U A140U: the self-cleavage was determined as 2.45.

Regarding A18U A47G, the self-cleavage turned out to be 1.05.

In the case of A92G U120C, the self-cleavage worked out at 0.64.

In the case of A30G U120A, the self-cleavage is 1.3.

On to C35U A126G, for which the self-cleavage came out at 0.58.

Consider A60G G136C, for which the self-cleavage is 0.72.

Turning to U108C U127C, the self-cleavage turned out to be 0.01.

As to U2A U87A, the self-cleavage was 1.32.

As for U9G C45G, the self-cleavage was 0.5.

For A36G U133A, the self-cleavage is 2.28.

Take G41U A86U: the self-cleavage worked out at 1.98.

Regarding A69U A82U, the self-cleavage was 0.04.

U38C U43A: the self-cleavage turned out to be 2.13.

Regarding A27U A114U, the self-cleavage was 0.14.

As for A94G A126C, the self-cleavage was 0.82.

Consider A94G A126U, for which the self-cleavage stood at 1.08.

Take C34A U43A: the self-cleavage came out at 1.8.

Regarding A55G A63U, the self-cleavage came out at 1.1.

For A47U A89G, the self-cleavage was found to be 0.86.

As for U9C A27U, the self-cleavage is 1.02.

For the variant A47U U120C, the self-cleavage is 0.28.

For U9C U12C, the self-cleavage was 1.27.

Turning to U103A A135G, the self-cleavage is 0.73.

Turning to U43C A98U, the self-cleavage came out at 1.68.

As to A4G A66G, the self-cleavage came out at 0.53.

For the variant U57G, the self-cleavage came out at 1.34.

Turning to U57A, the self-cleavage is 0.69.

Turning to G15U, the self-cleavage was 0.69.

In the case of A86G A135G, the self-cleavage is 0.99.

On to G7A, for which the self-cleavage was found to be 1.65.

Take C17A A24G: the self-cleavage stood at 1.64.

Turning to U12C A89C, the self-cleavage amounted to 1.09.

On to U2C U124C, for which the self-cleavage was 0.42.

As for C105G A117G, the self-cleavage was 0.02.

Consider A82G U122C, for which the self-cleavage was 0.24.

For the variant A55U A90G, the self-cleavage was 1.36.

On to U37C U127C, for which the self-cleavage is 1.08.

U87C A116C: the self-cleavage was 0.06.

For A24C U43A, the self-cleavage was determined as 0.67.

As to G53U U87C, the self-cleavage was determined as 0.98.

As to A54U A116U, the self-cleavage amounted to 0.42.

Regarding A118G U133A, the self-cleavage was found to be 1.28.

As for C45A C101U, the self-cleavage is 0.48.

As to U39A A89U, the self-cleavage turned out to be 2.25.

Consider A30U A125G, for which the self-cleavage was determined as 0.5.

In the case of U49A A90U, the self-cleavage is 1.26.

As to G123C A135G, the self-cleavage came out at 0.78.

On to A126G U132A, for which the self-cleavage worked out at 0.69.

Consider C42G A95G, for which the self-cleavage was 1.87.

Regarding A55G A78G, the self-cleavage came out at 0.23.

On to A52G A69G, for which the self-cleavage was 0.65.

Take U49C A94U: the self-cleavage turned out to be 1.36.

As to U9A U57C, the self-cleavage turned out to be 1.02.

For C34G A67G, the self-cleavage is 1.12.

In the case of U108C U131A, the self-cleavage was 0.02.

As for A64U A140G, the self-cleavage was 1.39.

Turning to A33U A66G, the self-cleavage was determined as 1.91.

For the variant G50C C85U, the self-cleavage is 1.4.

In the case of A23C U43C, the self-cleavage worked out at 1.86.

As for U12C A110U, the self-cleavage is 1.26.

For the variant A54G A114G, the self-cleavage was 0.4.

On to G74U C113U, for which the self-cleavage was 0.02.

With U49C A117G, the self-cleavage was found to be 1.68.

For A11G A92G, the self-cleavage came out at 1.1.

A60G A62U: the self-cleavage was 1.51.

As to U103A A134U, the self-cleavage amounted to 0.87.

Take A82U U124C: the self-cleavage was determined as 0.18.

As to C6U U49C, the self-cleavage is 0.83.

Turning to U100C A140U, the self-cleavage is 2.24.

On to A68G G137C, for which the self-cleavage is 1.12.

For U12C U97A, the self-cleavage was 1.6.

On to U38G C107U, for which the self-cleavage is 0.02.

Turning to A33U A118G, the self-cleavage came to 0.91.

Turning to A24C U72A, the self-cleavage was found to be 0.28.

Regarding C35A A91G, the self-cleavage is 1.42.

Take C16U G137A: the self-cleavage came to 0.85.

Take A82U A126G: the self-cleavage is 0.1.

With C46U A82C, the self-cleavage was 0.27.

For U19C G80C, the self-cleavage was 0.1.

Regarding A96U U97C, the self-cleavage turned out to be 1.9.

For the variant A11G A33G, the self-cleavage stood at 0.84.

On to U38C G137U, for which the self-cleavage came to 2.1.

Regarding A36U A78C, the self-cleavage was 0.23.

With U57C A63G, the self-cleavage was 1.05.

As to A62U U103C, the self-cleavage came out at 1.23.

Regarding A36G U108C, the self-cleavage stood at 0.01.

With G21U U37C, the self-cleavage was determined as 1.85.

For A33U U120C, the self-cleavage was 1.32.

Turning to U9C U132A, the self-cleavage amounted to 1.85.

As to G1A A111G, the self-cleavage is 0.21.

As to A62C A116U, the self-cleavage is 0.63.

As to A69G A96U, the self-cleavage is 1.85.

As to A96G G106U, the self-cleavage was 0.01.

As to U70C A92G, the self-cleavage turned out to be 0.82.

Turning to A90U U131C, the self-cleavage worked out at 2.68.

On to A90G A118U, for which the self-cleavage was found to be 0.45.

As for A33G A111U, the self-cleavage was 0.06.

As for G20A U97A, the self-cleavage came to 2.67.

With A23G G28A, the self-cleavage was determined as 0.93.

On to U57C A69U, for which the self-cleavage turned out to be 1.63.

Take A22U G74U: the self-cleavage turned out to be 0.27.

Turning to A110G U122A, the self-cleavage turned out to be 0.11.

As for A69U U127C, the self-cleavage came out at 1.46.

For the variant A95G A111U, the self-cleavage amounted to 0.15.

Turning to A96G U97C, the self-cleavage was 0.99.

As to A18U A117G, the self-cleavage was found to be 1.72.

On to U97C A125G, for which the self-cleavage stood at 0.31.

On to G74A U130C, for which the self-cleavage worked out at 0.11.

In the case of G44A G93C, the self-cleavage came to 1.87.

With A24U U127C, the self-cleavage was determined as 1.36.

Turning to A24G A95U, the self-cleavage was 1.16.

Consider A24C A125G, for which the self-cleavage amounted to 0.43.

On to G41A A117G, for which the self-cleavage was determined as 0.44.

U38A U108A: the self-cleavage amounted to 0.04.

On to G48A A129G, for which the self-cleavage was determined as 1.14.

For the variant A33G A64G, the self-cleavage was found to be 0.5.

A59U G137A: the self-cleavage amounted to 2.05.

Take A18G G79A: the self-cleavage amounted to 0.24.

In the case of U49C A135G, the self-cleavage came out at 1.97.

For A52G, the self-cleavage stood at 1.11.

In the case of G31C U102C, the self-cleavage was 1.92.

With C45U C77A, the self-cleavage was determined as 0.42.

For the variant A98G U108C, the self-cleavage is 0.

As to A60G A68G, the self-cleavage is 1.31.

For the origin of these results see the RNAGym collection of RNA variant scans (doi:10.7554/elife.90254).
